Laboratory results taken from patent US20210032365A1 (Chugai, published 2021).
Where a chain is given by its changes, count along the chain named.

T1: human C1s (human, UniProt P09871 16-688)
T1 construct: also called hC1s; serum-derived human C1s (CompTech)
T1 sequence: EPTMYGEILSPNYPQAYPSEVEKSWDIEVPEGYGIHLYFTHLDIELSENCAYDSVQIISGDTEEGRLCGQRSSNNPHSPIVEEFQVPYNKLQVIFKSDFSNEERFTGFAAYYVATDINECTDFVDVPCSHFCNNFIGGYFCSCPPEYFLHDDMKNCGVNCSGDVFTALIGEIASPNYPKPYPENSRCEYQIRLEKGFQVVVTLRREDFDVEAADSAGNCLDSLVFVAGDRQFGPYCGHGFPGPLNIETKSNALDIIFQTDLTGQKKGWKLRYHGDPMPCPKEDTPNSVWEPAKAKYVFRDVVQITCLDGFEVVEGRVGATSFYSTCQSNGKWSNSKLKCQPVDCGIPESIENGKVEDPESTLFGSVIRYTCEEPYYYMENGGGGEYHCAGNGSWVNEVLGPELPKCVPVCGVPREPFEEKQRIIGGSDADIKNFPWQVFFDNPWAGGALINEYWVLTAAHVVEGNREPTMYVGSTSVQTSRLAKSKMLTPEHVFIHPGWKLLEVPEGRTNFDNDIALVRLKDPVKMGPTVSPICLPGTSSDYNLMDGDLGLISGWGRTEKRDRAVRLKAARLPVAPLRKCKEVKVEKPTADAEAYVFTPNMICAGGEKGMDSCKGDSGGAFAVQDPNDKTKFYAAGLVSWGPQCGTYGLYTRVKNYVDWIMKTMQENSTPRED

B1: C1_IPN009VH2-SG4GK/IPN93L0029-SK1 (antibody, human IgG4 S228P, kappa, name in Kabat numbering, V domains shown)
VH: EVMLVESGGGLVKPGGSLRLSCAASGFTFSNYAMSWVRQAPGKGLEWVATISSGGSHTYYLDSVKGRFTISRDNSKDTLYLQMNSLRAEDTALYYCARLFTGYAMDYWGQGTLVTVSS
VL: QIVLTQSPATLSLSPGERATLSCTASSSVSSSYLHWYQQKPGKAPKLWIYSTSNLASGVPSRFSGSGSGTDYTLTISSLQPEDFATYYCHQYHRLHPITFGQGTKLEIKR
notes: also called IPN009VH2/IPN93L0029
B2: C1_IPN92H0026-SG4GK/IPN93L0031-SK1 (antibody, human IgG4 S228P, kappa, name in Kabat numbering, V domains shown)
VH: B1 VH with G66H
VL: B1 VL with L95H
notes: also called IPN92H0026/IPN93L0031
B3: C1_IPN92H0033-SG4GK/IPN93L0023-SK1 (antibody, human IgG4 S228P, kappa, name in Kabat numbering, V domains shown)
VH: B1 VH with Y103H
VL: B1 VL with H93Y, L95H, H96P
notes: also called IPN92H0033/IPN93L0023
B4: C1_IPN92H0033-SG4GK/IPN93L0030-SK1 (antibody, human IgG4 S228P, kappa, name in Kabat numbering, V domains shown)
VH: B1 VH with Y103H
VL: B1 VL with H93Y, L95H
notes: also called IPN92H0033/IPN93L0030
B5: C1_IPN92H0026-SG4GK/IPN93L0028-SK1 (antibody, human IgG4 S228P, kappa, name in Kabat numbering, V domains shown)
VH: B1 VH with G66H
VL: B1 VL with L95H, H96P
notes: also called IPN92H0026/IPN93L0028
B6: C1_IPN92H0033-SG4GK/IPN93L0021-SK1 (antibody, human IgG4 S228P, kappa, name in Kabat numbering, V domains shown)
VH: B1 VH with Y103H
VL: B1 VL with H96P
notes: also called IPN92H0033/IPN93L0021
B7: C1_IPN92H0033-SG4GK/IPN93L0028-SK1 (antibody, human IgG4 S228P, kappa, name in Kabat numbering, V domains shown)
VH: B1 VH with Y103H
VL: B1 VL with L95H, H96P
notes: also called IPN92H0033/IPN93L0028
B8: C1_IPN009VH2-SG4GK/IPN93L0031-SK1 (antibody, human IgG4 S228P, kappa, name in Kabat numbering, V domains shown)
VH: B1 VH
VL: B1 VL with L95H
notes: also called IPN009VH2/IPN93L0031
B9: C1_IPN92H0026-SG4GK/IPN93L0024-SK1 (antibody, human IgG4 S228P, kappa, name in Kabat numbering, V domains shown)
VH: B1 VH with G66H
VL: B1 VL with H93Y
notes: also called IPN92H0026/IPN93L0024
B10: C1_IPN92H0026-SG4GK/IPN93L0021-SK1 (antibody, human IgG4 S228P, kappa, name in Kabat numbering, V domains shown)
VH: B1 VH with G66H
VL: B1 VL with H96P
notes: also called IPN92H0026/IPN93L0021
B11: C1_IPN92H0026-SG4GK/IPN93L0030-SK1 (antibody, human IgG4 S228P, kappa, name in Kabat numbering, V domains shown)
VH: B1 VH with G66H
VL: B1 VL with H93Y, L95H
notes: also called IPN92H0026/IPN93L0030
B12: C1_IPN92H0026-SG4GK/IPN93L0023-SK1 (antibody, human IgG4 S228P, kappa, name in Kabat numbering, V domains shown)
VH: B1 VH with G66H
VL: B1 VL with H93Y, L95H, H96P
notes: also called IPN92H0026/IPN93L0023
B13: C1_IPN92H0026-SG4GK/IPN93L0029-SK1 (antibody, human IgG4 S228P, kappa, name in Kabat numbering, V domains shown)
VH: B1 VH with G66H
VL: B1 VL
notes: also called IPN92H0026/IPN93L0029
B14: C1_IPN009VH2-SG4GK/IPN93L0030-SK1 (antibody, human IgG4 S228P, kappa, name in Kabat numbering, V domains shown)
VH: B1 VH
VL: B1 VL with H93Y, L95H
notes: also called IPN009VH2/IPN93L0030
B15: C1_IPN92H0033-SG4GK/IPN93L0029-SK1 (antibody, human IgG4 S228P, kappa, name in Kabat numbering, V domains shown)
VH: B1 VH with Y103H
VL: B1 VL
notes: also called IPN92H0033/IPN93L0029

What follows are binders tested against T1, human C1s (assay: SPR, Ab captured; pH 5.8, 1.2 mM Ca).
Protocol: (§1) All variants were transiently expressed and purified by the method described above. The binding affinity of each histidine-substituted variant at pH 7.4 and pH 5.8 was determined at 37 degrees C. using Biacore T200 instrument (GE Healthcare). Recombinant Protein A/G (Pierce) was immobilized onto all flow cells of a CM4 sensor chip using an amine coupling kit (GE Healthcare). Antibodies and analytes were prepared in 7(+) buffer (20 mM ACES, 150 mM NaCl, 1.2 mM CaCl2, 0.05% Tween 20, 0.005% NaN3, pH 7.4), 5(+) buffer (20 mM ACES, 150 mM NaCl, 1.2 mM CaCl2, 0.05% Tween 20, 0.005% NaN3, pH 5.8), or 5(−) buffer (20 mM ACES, 150 mM NaCl, 3 micro M CaCl2, 0.05% Tween 20, 0.005% NaN3, pH 5.8). Each antibody was captured onto the sensor surface by protein A/G. Antibody capture levels were aimed at 200 resonance unit (RU). Serum-derived human C1s (CompTech) or recombinant C1s prepared in EXAMPLE 1 was injected at 50 nM, followed by dissociation. The sensor surface was regenerated in each cycle with 10 mM Glycine-HCl, pH 1.5. […] The ratio of KD 5.8+ to KD 7.4+(“KD 5+/7+”) and that of KD 5.8− to KD 7.4+(“KD 5−/7+”) were calculated. When the KD 5+/7+ or KD 5−/7+ of a variant is larger than that of the parent antibody IPN009VH2-SG4GK/IPN009VK3-SK1, that variant is considered to be “pH”- or “pH and Ca”-dependent, respectively. When binding response in 5(+) buffer and/or in 5(−) buffer of a variant is much lower than that of IPN09VH2/IPN009VK3, that variant is also considered as “pH”- and/or “pH and Ca”-dependent. Therefore, such mutations are effective to generate “pH”- and/or “pH and Ca”-dependent antibody. To further enhance “pH” and/or “pH and Ca” dependency, a combination of histidine mutations was conducted. Antibodies with combinations of histidine mutations were evaluated using Biacore by the method described above.

| Kd [nM] | koff [s⁻¹] | kon [M⁻¹ s⁻¹] | Binder |
| --- | --- | --- | --- |
| 15.5 | 0.00857 | 553000 | B1 |
| 4290 | 0.0178 | 4140 | B2 |
| 5.05 | 0.00282 | 559000 | B3 |
| 89.3 | 0.0449 | 503000 | B4 |
| 10.6 | 0.0059 | 557000 | B5 |
| 5.01 | 0.00293 | 585000 | B6 |
| 20.1 | 0.0144 | 717000 | B7 |
|  | 0.0127 | 532000 | B8 |
| 3.16 | 0.00143 | 451000 | B9 |
| 1.95 | 0.00149 | 763000 | B10 |
| 26.2 | 0.0592 | 2.26e+06 | B11 |
| 1.53 | 0.00124 | 813000 | B12 |
| 10.2 | 0.00613 | 602000 | B13 |
| 45.6 | 0.0222 | 487000 | B14 |
| 24.6 | 0.0222 | 905000 | B15 |

What follows are binders tested against T1, human C1s (assay: SPR, Ab captured; pH 5.8, 3 uM Ca).
Protocol: as §1

| Kd [nM] | koff [s⁻¹] | kon [M⁻¹ s⁻¹] | Binder |
| --- | --- | --- | --- |
| 5.54 | 0.00296 | 534000 | B1 |
| 215 | 0.00133 | 6170 | B2 |
| 11.3 |  |  | B3 |
| 2560 | 0.0603 | 23500 | B4 |
| 27.6 | 0.176 | 6.4e+06 | B5 |
| 7.59 |  |  | B6 |
| 8.5 | 0.0056 | 658000 | B7 |
|  | 0.00352 | 711 | B8 |
| 15.1 | 0.112 | 7.43e+06 | B9 |
| 8.12 | 0.17 | 2.1e+07 | B10 |
| 270 | 0.0012 | 4460 | B11 |
| 9.95 | 0.0619 | 6.23e+06 | B12 |
| 5.07 | 0.00412 | 812000 | B13 |
| 1.3 | 0.00577 | 4.42e+06 | B14 |
| 9.79 | 0.00376 | 384000 | B15 |

Each binder was assayed against T1, human C1s (assay: SPR; KD pH 5.8 1.2 mM Ca / KD pH 7.4 1.2 mM Ca).
Protocol: as §1

| KD 5(+)/7(+) | Binder |
| --- | --- |
| 0.9 | B1 |
| 6.3 | B2 |
| 1.6 | B3 |
| 3.7 | B4 |
| 2.2 | B5 |
| 2.6 | B6 |
| 3.1 | B7 |
| 142 | B8 |
| 2.8 | B9 |
| 2.4 | B10 |
| 1.1 | B11 |
| 1.3 | B12 |
| 1.1 | B13 |
| 1.8 | B14 |
| 1.6 | B15 |

These binders were tested against T1, human C1s (assay: SPR, Ab captured; pH 7.4, 1.2 mM Ca).
Protocol: as §1

| Kd [nM] | koff [s⁻¹] | kon [M⁻¹ s⁻¹] | Binder |
| --- | --- | --- | --- |
| 18.2 | 0.00897 | 494000 | B1 |
| 684 | 0.016 | 23300 | B2 |
| 3.25 | 0.000978 | 301000 | B3 |
| 24.2 | 0.0146 | 603000 | B4 |
| 4.76 | 0.00255 | 535000 | B5 |
| 1.92 | 0.000672 | 350000 | B6 |
| 6.5 | 0.00218 | 335000 | B7 |
|  | 8e-06 | 47600 | B8 |
| 1.14 | 0.00047 | 412000 | B9 |
| 0.804 | 0.000472 | 587000 | B10 |
| 24.8 | 0.0103 | 414000 | B11 |
| 1.16 | 0.000608 | 523000 | B12 |
| 9.03 | 0.00457 | 507000 | B13 |
| 25.5 | 0.0156 | 612000 | B14 |
| 15.4 | 0.0074 | 479000 | B15 |

These binders were tested against T1, human C1s (assay: SPR; KD pH 5.8 3 uM Ca / KD pH 7.4 1.2 mM Ca).
Protocol: as §1

| KD 5(-)/7(+) | Binder |
| --- | --- |
| 0.3 | B1 |
| 0.3 | B2 |
| 3.5 | B3 |
| 106 | B4 |
| 5.8 | B5 |
| 4 | B6 |
| 1.3 | B7 |
| 29500 | B8 |
| 13.2 | B9 |
| 10.1 | B10 |
| 10.9 | B11 |
| 8.6 | B12 |
| 0.6 | B13 |
| 0.1 | B14 |
| 0.6 | B15 |
